We go through two molecules from publication PMC5518878.

In this assay the target is full-length rhodopsin of Figure 2A, fused to a TEV cleavage site and tTA (human) (UniProt P08100). The assay is described as follows: Tango assay (TEV protease proximity reporter); HTL cells co-transfected with receptor-TEV cleavage site-tTA and GRK-TEV protease fusions; luciferase reporter; vehicle or ligand overnight (ATR 10 μM for rhodopsin; paroxetine; DHE 0.1 μM, GR 127935 1 μM; SX 1 μM, ICI 118 551 1 μM); DNA amounts adjusted for similar expression.
Sequence of full-length rhodopsin of Figure 2A, fused to a TEV cleavage site and tTA (human) (P08100 whole entry, the tested form may be a part): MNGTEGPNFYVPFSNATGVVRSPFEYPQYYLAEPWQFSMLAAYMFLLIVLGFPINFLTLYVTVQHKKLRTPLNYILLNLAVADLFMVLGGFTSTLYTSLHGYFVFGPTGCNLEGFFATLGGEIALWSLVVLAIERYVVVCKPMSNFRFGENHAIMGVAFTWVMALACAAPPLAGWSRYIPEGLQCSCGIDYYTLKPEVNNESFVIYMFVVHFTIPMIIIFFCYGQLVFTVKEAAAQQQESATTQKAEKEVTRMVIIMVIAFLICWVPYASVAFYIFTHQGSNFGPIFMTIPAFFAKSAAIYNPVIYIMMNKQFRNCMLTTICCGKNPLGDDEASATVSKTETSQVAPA

B1: GRK1 (1-183)-TEV protease fusion (domain or fragment)
chain: MDFGSLETVVANSAFIAARGSFDGSSSQPSRDKKYLAKLKLPPLSKCESLRDSLSLEFESVCLEQPIGKKLFQQFLQSAEKHLPALELWKDIEDYDTADNDLQPQKAQTILAQYLDPQAKLFCSFLDEGIVAKFKEGPVEIQDGLFQPLLQATLAHLGQAPFQEYLGSLYFLRFLQWKWLEAQ
On to B1, for which the binding capacity, percent of FL GRK1 came to 70%.

B2: GRK1 (31-183)-TEV protease fusion (domain or fragment)
chain: RDKKYLAKLKLPPLSKCESLRDSLSLEFESVCLEQPIGKKLFQQFLQSAEKHLPALELWKDIEDYDTADNDLQPQKAQTILAQYLDPQAKLFCSFLDEGIVAKFKEGPVEIQDGLFQPLLQATLAHLGQAPFQEYLGSLYFLRFLQWKWLEAQ
B2 yielded a binding capacity, percent of FL GRK1 of 70%.
